Experimental findings from PMC11284791, “Ribosome External Electric Field Regulates Metabolic Enzyme Activity: The RAMBO Effect” (The Journal of Physical Chemistry. B, 2024) are described below.

The data set concerns the molecule itself. Description: cross-linking; His-TPI alone with 2 mM BS(PEG)5; 10 mM sodium phosphate pH 7.5, 100 mM NaCl, 10 mM MgCl2, RT, 30 min; SDS-PAGE.

B1: C-terminal His-tagged triosephosphate isomerase from G. gallus (enzyme, UniProt P00940 1-248, looked up)
chain: MAPRKFFVGGNWKMNGDKKSLGELIHTLNGAKLSADTEVVCGAPSIYLDFARQKLDAKIGVAAQNCYKVPKGAFTGEISPAMIKDIGAAWVILGHSERRHVFGESDELIGQKVAHALAEGLGVIACIGEKLDEREAGITEKVVFEQTKAIADNVKDWSKVVLAYEPVWAIGTGKTATPQQAQEVHEKLRGWLKSHVSDAVAQSTRIIYGGSVTGGNCKELASQHDVDGFLVGGASLKPEFVDIINAKH
notes: Triosephosphate isomerase, G. gallus, 248 residues, as m1, with a C-terminal His tag; also called His-TPI; His-tagged TPI; source: E. coli BL21 (DE3), pET-21a(+)-His-TPI, purified (Ni-NTA); not shown: His tag, C-terminal, kept
Regarding B1, the stoichiometry N (commonly a count of units in the complex or per binding partner) came out at 2.
